According to paper PMC10251477 (2023):
Changes are numbered by the printed parent chain. In names and notes the source's numbering stands. Bridge positions count the residues as written; N and C are the ends. Square brackets hold non-standard residues; d marks the D form. Primed or numbered codes have the meaning given here. Ends that are not written are not given here. 5/6FAM = 5/6-carboxyfluorescein; S5 = C=CCCC[C@](C)(N)C(=O)O; PEG3′ = not defined here

Tests used:
[1] = biological target: T1, MBP-tagged R1441C RocCOR LRRK2; test: FP
T1 chain: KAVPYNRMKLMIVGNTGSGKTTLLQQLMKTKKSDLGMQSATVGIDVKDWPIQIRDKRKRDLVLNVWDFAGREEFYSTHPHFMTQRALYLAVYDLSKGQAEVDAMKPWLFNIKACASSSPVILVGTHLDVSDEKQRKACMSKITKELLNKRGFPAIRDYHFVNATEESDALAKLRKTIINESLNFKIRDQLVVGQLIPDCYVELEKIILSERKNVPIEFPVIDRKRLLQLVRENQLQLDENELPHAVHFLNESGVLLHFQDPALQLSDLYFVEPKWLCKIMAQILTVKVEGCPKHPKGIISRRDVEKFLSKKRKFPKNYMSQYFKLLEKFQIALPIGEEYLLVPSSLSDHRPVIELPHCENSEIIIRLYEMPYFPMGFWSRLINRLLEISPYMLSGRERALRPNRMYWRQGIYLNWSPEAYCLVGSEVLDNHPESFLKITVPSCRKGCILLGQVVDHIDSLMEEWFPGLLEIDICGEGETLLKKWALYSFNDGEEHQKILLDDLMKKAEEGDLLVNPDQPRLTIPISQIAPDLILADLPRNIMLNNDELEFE

[2] = biological target: T2, MBP-tagged RocCOR LRRK2 (wild type); test: FP
T2 chain: T1 chain with C114R

B1: FAM ECOR A12G (doubly stapled Elongated COR peptide with A12G) (peptide)
chain: {5/6FAM-PEG3′}-KGEGE[S5]LLK[S5]WGLYSFNDGEKH[S5]KKL[S5]KL
modifications: staple 6-10, 23-27
Question: How did the Kd [1] turn out when B1 was run?
Answer: The Kd was 32 nM.

Question: What about the Kd [2] of the same binder?
Answer: The Kd was 57 nM.

B2: FAM ECOR (doubly stapled Elongated COR peptide) (peptide)
chain: {FAM-PEG3′}-KGEGE[S5]LLK[S5]WALYSFNDGEKH[S5]KKL[S5]KL
modifications: staple 6-10, 23-27
Question: How did the Kd [1] turn out when B2 was run?
Answer: The Kd was 24 nM.

Question: What about the Kd [2] of the same binder?
Answer: The Kd was 45 nM.
